What was measured:
Format in all cases: cell-based
primary human B cells [1] = test: IgG secretion by stimulated primary human B cells (AlphaLISA); conditions: for IC50: pre-incubated 30 minutes, TLR7 agonist for 5 days, AlphaLISA, read-out: IgG production
Method: (§1) A library of conditioned cell culture supernatants with secreted proteins was added and IgG secretion and cell viability (CTG, CellTiter-Glo) measured at the end of culture.
IgG was measure by AlphaLISA 5 days after stimulation.
FIG. 3A-1 and FIG. 3A-2 show data from isolated primary human B cells that were stimulated with small molecule TLR7 agonist in the presence of potential LGALS3BP inhibitors and controls (left). Anti-LGALS3BP antibody was added to primary human B cells activated with CpG or anti-IgM/CD40L/CpG (right). IgG secretion was measured 5 days later by AlphaLISA.
(§2) To identify secreted proteins that affect IgG production by B cells a selection of proteins from the human secretome in an IgG secretion assay were screened using primary human B cells. B cells from healthy volunteers were exposed to 1400 recombinantly expressed secreted proteins before activation with a TLR7 small molecule agonist. After 5 days IgG was measured to identify proteins that enhance or inhibit IgG secretion. […] LGALS3BP was independently identified as the most differentially regulated gene in blood from lupus nephritis patients compared to healthy volunteers.
(§3) The effect of anti-LGALS3BP antibodies on IgG secretion by primary human B cells was evaluated. IgG secretion by TLR7 activated B cells was inhibited by almost 90% in presence of anti-LGALS3BP antibody or anti-LGALS3BP F(ab′)2 (74%) to exclude inhibition through FcγRIIb present on B cells (FIGS. 3A-1 and 3A-2). […] The same inhibitory effect of the LGALS3BP antibody was observed when B cells were activated with CpG (94%) or anti-IgM/CD40L/CpG (77%). IgM secretion was inhibited by antibody blockade as well excluding a role of LGALS3BP in isotype switching (FIG. 3B-1, FIG. 3B-2 and FIG. 3B-3). […] IL-6 secretion was measured to investigate if LGALS3BP blockade interferes with TLR7 activation and signaling thereby reducing B cell proliferation. A 37% decrease in IL-6 production was observed 48 h after B cell stimulation in the presence of anti-LGALS3BP antibody. This reduction was LGALS3BP specific and not mediated through FcγRIIb given the same effect was measured in the presence of Fc block or with anti-LGALS3BP F(ab′)2. Lactose also had the same effect, thereby, excluding a direct effect of the antibody through cross-linking the surface-bound protein. […] To test if anti-LGALS3BP antibodies reduce B cell survival by blocking B cell activation CD69 upregulation was measured 16 h after activation with TLR7 agonist (FIG. 3C-1, FIG. 3C-2 and FIG. 3C-3). No difference in percentage of CD69^+ activated cells or expression levels of CD69 was observed when an anti-LGALS3BP antibody was added. LGALS3BP blockade inhibits IgG secretion independent of the stimulation protocol used. To determine if LGALS3BP blockade has an effect on B cell survival in the absence of stimulation additional experiments were conducted. Adding the antibody to non-stimulated B cells reduced viability by 66% (FIG. 3D-1 and FIG. 3D-2). This effect was most pronounced in B cells.
(§4) Primary B cells from healthy human donors were stimulated in the presence of galectin-3 inhibitors in order to determine if galectin-3 plays a role in the function of LGALS3BP in B cell biology. Specifically, freshly isolated B cells from healthy volunteers were pre-incubated with galectin-3 (Gal-3) inhibitors for 30 minutes before stimulation with TLR7 agonist for 5 days. Supernatants were harvested and IgG measured by AlphaLISA. Cell viability was measured by CellTiter-Glo (ATP production).

primary human B cells [2] = test: IL-6 secretion by TLR7 agonist-activated B cells (AlphaLISA); conditions: 48 h after B cell stimulation with TLR7 agonist
Method: IL-6 secretion was measured 2 days after stimulation by AlphaLISA.
as §3, with “F(ab′)2.” for “F(ab′)2. Lactose also had the same effect, thereby, excluding a direct effect of the antibody through cross-linking the surface-bound protein.”, “No difference in percentage of CD69^+ activated cells or expression levels of CD69 was observed when an anti-LGALS3BP antibody was added. LGALS3BP blockade inhibits IgG secretion independent of the stimulation protocol used. To determine if LGALS3BP blockade has an effect on B cell survival in the absence of stimulation additional experiments were conducted. Adding the antibody to non-stimulated B cells reduced viability by 66% (FIG. 3D-1 and FIG. 3D-2). This effect was most pronounced in B cells.” left out

primary human B cells [3] = test: Viability of TLR7 agonist-stimulated B cells (CellTiter-Glo, ATP); conditions: for IC50: pre-incubated 30 minutes, TLR7 agonist for 5 days, CellTiter-Glo
Method: as §1
B cell viability was measured 5 days later by CellTiter-Glo.
as §2, §4

primary human B cells [4] = test: B cell activation, CD69 expression by flow cytometry; conditions: 16 h after stimulation with TLR7 agonist
Method: FIG. 2A-1 and FIG. 2A-2 show data from B cells stimulated with small molecule TLR7 agonist in the presence of increasing concentrations of purified recombinant LGALS3BP. B cell activation was measured 16 h later by flow cytometry quantifying CD69 expression.
To investigate if addition of LGALS3BP affects activation of naïve B cells CD69 expression was measured 16 h after stimulation with TLR7 agonist. All B cells had increased CD69 expression compared to non-stimulated cells but no change was seen upon addition of various concentrations of recombinant LGALS3BP (FIG. 2A-1 and FIG. 2A-2). The localization of endogenous LGALS3BP in primary human B cells with an antibody specific for LGALS3BP was then evaluated (FIG. 2b). […]
The effect of anti-LGALS3BP antibodies on IgG secretion by primary human B cells was evaluated. […] IL-6 secretion was measured to investigate if LGALS3BP blockade interferes with TLR7 activation and signaling thereby reducing B cell proliferation. […] This reduction was LGALS3BP specific and not mediated through FcγRIIb given the same effect was measured in the presence of Fc block or with anti-LGALS3BP F(ab′)2. […] To test if anti-LGALS3BP antibodies reduce B cell survival by blocking B cell activation CD69 upregulation was measured 16 h after activation with TLR7 agonist (FIG. 3C-1, FIG. 3C-2 and FIG. 3C-3). […]

[5] = system: primary human macrophages; test: LGALS3BP induction in in vitro differentiated macrophages (QPCR, ELISA)
Description: Expression between samples was normalized using HPRT1 as a housekeeping gene. […] LGALS3BP has an IRF binding site consistent with regulation by type I interferons. To determine which pathways can induce LGALS3BP expression, primary human monocytes were differentiated into macrophages in vitro and subsequently were stimulated with IFN-α, IFN-γ, TLR4 agonist (LPS), TLR7/8 agonist (resiquimod) and TLR9 agonist (CpG). […] All stimuli induced secretion of IL-6.

OC[C@H]1O[C@@H](O[C@H]2[C@H](O)[C@@H](O)C(O)O[C@@H]2CO)[C@H](O)[C@@H](O)[C@H]1O (stereo partly drawn) [Lactose, reference compound]
inhibition of IgG secretion (primary human B cells [1]; TLR7 activated B cells, 5 days): 59% | IL-6 production, effect in words (primary human B cells [2]): same effect

CC(=O)N[C@H]1C(O)O[C@H](CO)[C@@H](O[C@@H]2O[C@H](CO)[C@H](O)[C@H](O)[C@H]2O)[C@@H]1O (stereo partly drawn) [LacNAc, N-Acetyl-D-lactosamine, N-Acetyl-D-lactosamine, reference compound]
IC50 (primary human B cells [1]; Homo sapiens, B-cell): > 10 µM | IC50 (primary human B cells [3]; Homo sapiens, B-cell): > 10 µM

CCCO[C@@H]1O[C@H](CO)[C@@H](O[C@@H]2O[C@H](CO)[C@H](O)[C@H](O)[C@H]2O)[C@H](O)[C@H]1O [Beta n-propal lactoside, reference compound]
IC50 (primary human B cells [1]): > 10 µM | IC50 (primary human B cells [3]): > 10 µM

OC[C@H]1O[C@@](CO)(O[C@H]2O[C@H](CO)[C@@H](O)[C@H](O)[C@H]2O)[C@@H](O)[C@@H]1O [sucrose, reference compound]
IgG secretion, effect in words (primary human B cells [1]; TLR7 activated B cells): did not inhibit IgG secretion

B1: LGALS3BP: secreted scavenger receptor family protein, full length human sequence SEQ ID NO: 1; used as recombinant protein (protein, listed as Homo sapiens)
chain: MTPPRLFWVWLLVAGTQGVNDGDMRLADGGATNQGRVEIFYRGQWGTVCDNLWDLTDASVVCRALGFENATQALGRAAFGQGSGPIMLDEVQCTGTEASLADCKSLGWLKSNCRHERDAGVVCTNETRSTHTLDLSRELSEALGQIFDSQRGCDLSISVNVQGEDALGFCGHTVILTANLEAQALWKEPGSNVTMSVDAECVPMVRDLLRYFYSRRIDITLSSVKCFHKLASAYGARQLQGYCASLFAILLPQDPSFQMPLDLYAYAVATGDALLEKLCLQFLAWNFEALTQAEAWPSVPTDLLQLLLPRSDLAVPSELALLKAVDTWSWGERASHEEVEGLVEKIRFPMMLPEELFELQFNLSLYWSHEALFQKKTLQALEFHTVPFQLLARYKGLNLTEDTYKPRIYTSPTWSAFVTDSSWSARKSQLVYQSRRGPLVKYSSDYFQAPSDYRYYPYQSFQTPQHPSFLFQDKRVSWSLVYLPTIQSCWNYGFSCSSDELPVLGLTKSGGSDRTIAYENKALMLCEGLFVADVTDFEGWKAAIPSALDTNSSKSTSSFPCPAGHFNGFRTVIRPFYLTNSSGVD
increase in IgG (primary human B cells [1]; purified recombinant protein, B cells stimulated with TLR9 agonist CpG): 1.9 fold | enhanced IgG production (primary human B cells [1]; purified recombinant protein, TLR7 agonist, B cells from 6 healthy volunteers, 5 days): 1.6 fold | increase in IgG (primary human B cells [1]; purified recombinant protein, activation cocktail with anti-IgM, CD40L and CpG): 1.2 fold | enhanced IgG secretion (primary human B cells [1]; secretome screen, recombinantly expressed secreted proteins, TLR7 small molecule agonist, 5 days): 4.1 fold | CD69 expression / percentage of CD69+ activated cells (primary human B cells [4]): no change | cell viability and metabolic activity (ATP measured by CellTiter-Glo assay) (primary human B cells [3]; secretome screen, TLR7 small molecule agonist, 5 days): doubled

B2: IFN-γ: interferon used as macrophage stimulus (protein, UniProt P01579 24-161, looked up)
Interferon gamma: QDPYVKEAENLKKYFNAGHSDVADNGTLFLGILKNWKEESDRKIMQSQIVSFYFKLFKNFKDDQSIQKSVETIKEDMNVKFFNSNKKKRDDFEKLTNYSVTDLNVQRKAIHELIQVMAELSPAAKTGKRKRSQMLFRG
secretion of the LGALS3BP protein ([5]; ELISA in supernatants, stimuli for 20 h): increased secretion | LGALS3BP mRNA expression ([5]; QPCR, stimuli for 6 h): induced

Source: US20180251559A1, “Methods for the Modulation of LGALS3BP to Treat Systemic Lupus Erythematosus” (Merck Patent GmbH, priority 2015, published 2018)
